One assay deals with CD8^+/TCR^− FC. Briefly: CpG ODN / LPS stimulation of sorted FC, cytokine production by ELISA / multiplex. The assay is classed as cell-based, mice. The settings on record: FC from 10 day FL-cultured BM, overnight culture, medium. As for the experimental part:
CpG oligodeoxynucleotides (ODN) stimulation. Sorted p-preDC or FC were cultured for 18 hours at 10^5 cells/200 μL in 96 well round-bottom culture plates in culture medium in the presence or absence of Toll-like receptor (TLR)-9 ligand, CPG-ODN 1668 (TCCATGACGTTCCGATGCT) (SEQ ID NO. 1) (GibcoBRL Custom Primers) at 1 μM, TLR-4 ligand, LPS from Escherichia coli (Sigma, MO, USA) at 10 μg/ml, as previously described^30. CpG or LPS-treated or untreated cells were subsequently assayed for: 1) the expression of DC activation/maturation cell surface markers by FACS, 2) their survival rate by 7AAD staining, or 3) morphological appearance by Wright Giemsa staining on cytospins. The supernatant of these cultures were collected for analysis of the production of different cytokines by ELISA.
Cytokine production by ELISA. Briefly, the cell-free supernatants of 12H, 18H, or 24H cultured cells (FC or p-preDC,) with or without CpG ODN or LPS were collected and kept frozen at −80° C. The amount of cytokine produced was determined by 1) ELISA kits for mouse IFN-α (R&D system) and mouse TNF-α (Biosource International), and 2). Multiplex for MIP 1αCCL3), GM-CSF, MCP-1 (CCL2), RANTES (CCL5), IFN-γ, IL-1β, IL-2, IL-4, IL-5, IL-6, IL-10, IL-12p70, IL-9, and IL13 on 18 hour incubation supernatants from three different experiments performed by Linco Diagnostic Services (St. Charles, Mo.).
For orientation: An ELISA detects its analyte on a solid surface through an enzyme-linked reagent.

The test system of another assay is p-preDC from cultured BM. Briefly: Culture of BMC with FL for 10 days, expansion of p-preDC. The settings on record: 10 days in culture with FL, n=4. The assay is classed as cell-based, mice. As for the experimental part: Culture of BMC with FL. BMC were resuspended at 10^6 cells/ml in culture medium consisting of RPMI 1640 (Gibco), 10% FBS (Gibco), 1 mM Sodium pyruvate (Gibco), 10 mM Hepes (Gibco), 2 mM L-Glutamine (Gibco), Penicillin 100 U/mL, 100 μg/mL Streptomycin, (Gibco), and 10^−5 M 2-mercaptoethanol (Sigma), supplemented with human FL (100 ng/ml, generous gift from Amgen, Seattle, Wash.). Every 5 days of culture, half of the medium was replaced by fresh cytokine-supplemented culture medium according to a protocol previously described^30.
Cell sorting. HSC, FC, and p-preDC were sorted as previously described^9,30,49. HSC were sorted for Sca-1^+c-Kit^+Lin^− expression, FC were sorted for CD8α^+/TCRαβ^−/TCRγδ^− expression, and p-preDC were sorted for CD11c^dim/CD11b^−/B220^+ expression. Briefly, BMC were incubated with Abs on ice for 30 minutes, cells were washed twice in the CSM, filtered, and resuspended to a final concentration of 2.5×10^6 cells/mL in the CSM for cell sorting. The isolation of the cell populations was performed on FACSVantage Flow Cytometers (Becton Dickinson). The populations of interest were isolated from the live lymphoid gate, and after reanalysis, only cells with a purity of >94% were used.

Another assay relates to FC population in PB. Briefly: Flt3-ligand treatment of mice, subtypes in the mobilized FC population in PB. Type of assay: in vivo, B10.BR mice. How it is done: Flt3-ligand treatment of mice. Recombinant human Flt-3 Ligand (FL, kindly provided by Amgen, Seattle, Wash.) was diluted in sterile, filtered, endotoxin-free water at a concentration of 100 μg/ml. Donor B10.BR mice were subcutaneously injected with 10 μg of FL daily for 10 days. B10.BR control mice were injected with saline only. At the end of the treatment, peripheral blood was harvested and collected into heparinized tubes.
Phenotypic analysis of sorted FC. Sorted FC isolated from fresh BMC or FL-mobilized peripheral blood, with a purity ranging from 94 to 98%, were incubated with Fc receptor block (anti-CD16/CD32) before staining with different lineage specific markers, including anti-CD4, CD11c, B220, NK1.1, DX5, CD14, Gr1, and CD19. During reanalysis of sorted FC, less than 1% of contaminating T cells (TCRαβ FITC and TCRγδFITC) were detected, which therefore allowed the use of FITC-conjugated specific markers for further analysis. To validate the specificity of staining, various conjugates of the same antibody were used, including CD11c, CD4 and CD19 conjugated to FITC and APC, as well as B220 conjugated with PerCP, APC, or FITC (not shown). To analyze the subtypes of DC in the sorted FC population, sorted FC were blocked and stained with CD11b FITC, CD11c APC and B220 PerCP mAbs to determine the presence of myeloid pre-DC (CD11c^+/B220^−/CD11b^+), p-preDC (CD11c^dim/B220^+/CD11b^−), the common precursor population for DC (CD11c^+/B220^+/CD11b^+) or mature lymphoid DC (CD8α^+/CD11c^+/CD11b^−/B220^−). The cells were washed twice in CSM, and analyzed on a FACS Calibur using Cell Quest Software (Becton Dickinson, Mountainview, Calif.).

The mark [1] stands for this setting: mice treated with FL for 10 days (data not shown).
Setting [2] is: mice treated with FL for 10 days, sorted FC from PB.

Values joined by “and” are separate entries in the source; they are usually repeats but may differ in a detail not shown here. Identical values can stand only once.

B1: FL: Recombinant human Flt-3 Ligand (FL, kindly provided by Amgen, Seattle, Wash.) (protein, UniProt P49771 27-235, looked up)
Fms-related tyrosine kinase 3 …: TQDCSFQHSPISSDFAVKIRELSDYLLQDYPVTVASNLQDEELCGGLWRLVLAQRWMERLKTVAGSKMQGLLERVNTEIHFVTKCAFQPPPSCLRFVQTNISRLLQETSEQLVALKPWITRQNFSRCLELQCQPDSSTLPPPWSPRPLEATAPTAPQPPLLLLLLLPVGLLLLAAAWCLHWQRTRRRTPRPGEQVPPVPSPQDLLLVEH
B1: in the assay on CD8^+/TCR^− FC, the “IFN-α production by FL-derived FC” value is given as “significant amounts of IFN-α”. Moreover, in the assay on p-preDC from cultured BM, the “increase in FL-p-preDC from cultured BM” value is recorded as 17 fold. Further, in the assay on FC population in PB (FL-treatment of mice), the “expansion of FC in PB” value is “significantly expands”. In the assay with FC population in PB (setting [1]), the “FL-FC in the PB expressing CD14” value is reported as “none” and the “FL-FC in the PB expressing CD19” value is recorded as “none”. Besides, in the assay with FC population in PB (setting [2]), the “CD11c^bright population (mature DC) in FL-FC” value worked out at 20%; the “CD11c^dim population (p-preDC phenotype) in FL-FC” value is 60% and 60-65%; the “FL-FC in the PB expressing CD11c” value is listed as 85-90%; the “FL-FC in the PB expressing NK1.1” value was 5-7%.
